Target: the molecule itself
Assay: dynamic light scattering

SLLTEVETPIRNEWGCRCNDSSD [Peptide G37]
binding result: binds

From paper doi:10.1101/2022.07.04.498777 (bioRxiv, 2022)
